Our source for the Cy3 Signal Intensity (Background subtracted) (arbitrary units) and Cy5 Signal Intensity (Background subtracted) (arbitrary units) values is patent US20080214408A1.

For experiment [1], the target named is GFP-Tus-His6 fusion protein (E. coli) (UniProt P16525). As to the kind of experiment: protein microarray, fluorescence; fusion protein made in situ and held on plasmid with mutant Ter site (SEQ ID NO: 12), detected with Cy3-labeled anti-his antibody.
For experiment [2] the target is unchanged. Briefly: protein microarray, fluorescence; fusion protein made in situ and held on plasmid with mutant Ter site (SEQ ID NO: 12), detected with Cy5-labeled anti-his antibody.
Experiment [3] shares this target. As to the kind of experiment: protein microarray, fluorescence; fusion protein made in situ and held on plasmid with wild-type Ter site, detected with Cy5-labeled anti-his antibody.
The target is the same in experiment [4]. Briefly: protein microarray, fluorescence; fusion protein made in situ and held on plasmid with wild-type Ter site, detected with Cy3-labeled anti-his antibody.

Consider “monoclonal antibody to the poly-his tag (Sigma-Aldrich), labeled with Cy3 or Cy5”, for which the Cy3 Signal Intensity (Background subtracted) (arbitrary units) in experiment [1] was 10900; in experiment [4] it was 20600. Also, the results for the Cy5 Signal Intensity (Background subtracted) (arbitrary units) in experiment [2] and in experiment [3] were 4740 and 14000, respectively.
